In experiment [1] the test system is Hep 3B hepatocellular carcinoma xenograft. Briefly: Hep 3B hepatocellular carcinoma xenograft model. Type of experiment: in vivo, mouse. To be noted: Hep 3B xenograft; PEG-BCT-100 20 mg/kg IV twice a week; DFMO 2% w/v in drinking water. The procedure:
In one example embodiment, the Hep 3B tumour cells are maintained in vitro culture in EMEM medium supplemented with 10% heat inactivated fetal bovine serum at 37° C. in an atmosphere of 5% CO2 in air. The tumour cells are routinely sub-cultured twice weekly. The cells growing in an exponential growth phase are harvested and counted for tumour inoculation.
Each mouse is inoculated subcutaneously at the right flank region with Hep 3B tumour cells (5×10^6) in 0.1 ml of PBS (1:1 Matrigel) for tumour development. The treatments start when the mean tumour size reaches 119 mm^3. The date of tumour cell inoculation is denoted as day 0.
(§1) Four treatment groups of animals, with eight animals in each group, are tested. Control group (negative control) receives physiological saline, and the three treatment groups respectively receive 20 mg/kg of PEG-BCT-100 alone, 2% w/v DFMO in drinking water, and combination of 20 mg/kg of PEG-BCT-100 and 2% w/v DFMO. PEG-BCT-100 is administered intravenously, twice a week, until euthanization while DFMO is supplied in drinking water at 2% w/v.

Experiment [2] deals with H1650 lung adenocarcinoma xenografts. In words: H1650 lung adenocarcinoma xenograft. The class given is in vivo, BALB/c nude mice. To be noted: for median survival: PEG-BCT-100 20 mg/kg IP twice a week. How it is done: (§2) In one example embodiment, ten million lung adenocarcinoma cells from cell lines H1650, H1975, and HCC4006 are engrafted subcutaneously in BALB/cnude mice (4 weeks old with body weight of 10-14 g). Body weight, clinical signs and survival times are recorded.
(§3) Two groups of the mice, with eight mice in each group, are tested. Control group (negative control) receives physiological saline and treatment group receives 20 mg/kg of PEG-BCT-100. PEG-BCT-100 is administered via intraperitoneal (IP) injection, twice weekly, until euthanization.
(§4) In one example embodiment, ten million lung adenocarcinoma cells from cell lines H1650, H1975 and HCC4006 are engrafted subcutaneously in BALB/cnude mice (4 weeks old with body weight of 10-14 g). Body weight, clinical signs and survival times are recorded.
(§5) Four groups of the mice, with eight mice in each group, are tested. Control group (negative control) receives physiological saline, and the three treatment groups respectively receive 20 mg/kg of PEG-BCT-100 alone, 2% w/v DFMO in drinking water, and combination of 20 mg/kg of PEG-BCT-100 and 2% w/v DFMO. PEG-BCT-100 is administered intraperitoneally, twice a week, until euthanization while DFMO is supplied in drinking water at 2% w/v.

Experiment [3] has as its system H1975 lung adenocarcinoma xenografts. In words: H1975 lung adenocarcinoma xenograft. The class given is in vivo, BALB/c nude mice. To be noted: for median survival: PEG-BCT-100 20 mg/kg IP twice a week. How it is done:
as §2, §3, §4, §5

For the next experiment, the system named is K-562 leukemia xenograft. Briefly: K-562 leukemia xenograft model. Type of experiment: in vivo, mouse. To be noted: K-562 xenograft; PEG-BCT-100 20 mg/kg IV twice a week; DFMO 2% w/v in drinking water. The procedure: In one example embodiment, the K-562 tumour cells are maintained in vitro as a suspension culture in RPMI1640 medium supplemented with 10% heat inactivated fetal bovine serum at 37° C. in an atmosphere of 5% CO2 in air. The tumour cells are routinely sub-cultured twice weekly. The cells growing in an exponential growth phase are harvested and counted for tumour inoculation.
Each mouse is inoculated subcutaneously at the right flank region with K-562 tumour cells (5×10^6) in 0.1 ml of PBS/Matrigel (1:1) for tumour development. The treatments start when the mean tumour size reaches 125 mm^3. The date of tumour cell inoculation is denoted as day 0.
as §1

Experiment [4] deals with SU-DHL-10 B cell lymphoma xenograft. Briefly: SU-DHL-10 B cell lymphoma xenograft model. The class given is in vivo, mouse. To be noted: SU-DHL-10 xenograft; PEG-BCT-100 20 mg/kg IV twice a week; DFMO 2% w/v in drinking water. The procedure: In one example embodiment, SU-DHL-10 human lymphoma cells are maintained in vitro culture in RPMI1640 medium supplemented with 20% fetal bovine serum at 37° C. in an atmosphere of 5% CO2 in air. The tumour cells are routinely sub-cultured twice weekly. The cells in an exponential growth phase are harvested and counted for tumour inoculation.
One day before tumour inoculation, all mice are sub-lethally irradiated with 60Co (200 rad). Each mouse is inoculated subcutaneously at the right flank region with SU-DHL-10 tumour cells (1×10^7) in 0.1 ml of PBS/Matrigel (1:1) for tumour development. The treatments start when the mean tumour volume reached 116 mm^3. The date of tumour cell inoculation is denoted as day 0.
Four treatment groups of animals, with eight animals in each group, are tested. Control group (negative control) receives physiological saline, 20 mg/kg of PEG-BCT-100 alone, 2% w/v DFMO in drinking water, and combination of 20 mg/kg of PEG-BCT-100 and 2% w/v DFMO. PEG-BCT-100 is administered intravenously, twice a week, until euthanization while DFMO is supplied in drinking water at 2% w/v.

For experiment [5], the system named is MIA-PaCa-2 pancreatic cancer xenograft. Briefly: MIA-PaCa-2 pancreatic cancer xenograft model. Type of experiment: in vivo, mouse. To be noted: MIA-PaCa-2 xenograft; PEG-BCT-100 20 mg/kg IV twice a week; DFMO 2% w/v in drinking water. How it is done: In one example embodiment, the MIA-PaCa-2 tumour cells are maintained in vitro culture in EMEM medium supplemented with 10% heat inactivated fetal bovine serum at 37° C. in an atmosphere of 5% CO2 in air. The tumour cells are routinely sub-cultured twice weekly. The cells growing in an exponential growth phase are harvested and counted for tumour inoculation.
Each mouse is inoculated subcutaneously at the right flank region with MIA-PaCa-2 tumour cells (5×10^6) in 0.1 ml of PBS (1:1 Matrigel) for tumour development. The treatments start when the mean tumour size reaches 124 mm^3. The date of tumour cell inoculation was denoted as day 0.
as §1

Experiment [6] concerns Kasumi-1 leukemia xenograft. Briefly: Kasumi-1 leukemia xenograft model. To be noted: Kasumi-1 xenograft; for anti-tumour effect: PEG-BCT-100 20 mg/kg IV twice a week, DFMO 2% w/v in drinking water. The class given is in vivo, mouse. How it is done: In one example embodiment, the Kasumi-1 tumour cells are maintained in vitro as a suspension culture in RPMI1640 medium supplemented with 10% heat inactivated fetal bovine serum at 37° C. in an atmosphere of 5% CO2 in air. The tumour cells are routinely sub-cultured twice weekly. The cells growing in an exponential growth phase are harvested and counted for tumour inoculation.
All mice are γ-irradiated (200 rad) for 24 h before tumour cell injection. Kasumi-1 tumour cells (1×10^7) in 0.2 ml of PBS are mixed with cultrex in a 1:1 ratio. Each mouse is inoculated subcutaneously at the right flank region with the tumour cells suspension for tumour development. The treatments start when the mean tumour size reached 114 mm^3. The date of tumour cell inoculation is denoted as day 0.
as §1

Setting [7] is: PEG-BCT-100 20 mg/kg IP twice weekly, DFMO 2% w/v in drinking water, 20 mg/kg.
The mark [8] stands for this setting: PEG-BCT-100 20 mg/kg vs control arm.
[9] abbreviates: PEG-BCT-100 20 mg/kg vs control arm, 20 mg/kg.

Entries after “also recorded” stand apart in the source; their conditions may differ.

With `NCCC[C@](N)(C(=O)O)C(F)F` [DFMO, α-difluoromethylornithine, reference compound], the anti-tumour effect entry is “significant anti-tumour effect” in experiment [1]; “no significant anti-tumour effect” in the experiment with K-562 leukemia xenograft; “no significant anti-tumour effect” in experiment [4]; “significant anti-tumour effect” in experiment [5]; “significant anti-tumour activity” in experiment [6]. The values for the median survival in experiment [2] (DFMO 2% w/v in drinking water) and in experiment [3] (DFMO 2% w/v in drinking water) were 17 days and 18 days, respectively. In addition, in experiment [6] (2% DFMO in drinking water), the TGI was 45%.

B1: PEG-BCT-100: pegylated recombinant human arginase I (SEQ ID NO.1, or SEQ ID NO.3 with six histidines), about 6-12 PEG molecules per arginase (protein, UniProt P05089 1-322, looked up)
Arginase-1: MSAKSRTIGIIGAPFSKGQPRGGVEEGPTVLRKAGLLEKLKEQECDVKDYGDLPFADIPNDSPFQIVKNPRSVGKASEQLAGKVAEVKKNGRISLVLGGDHSLAIGSISGHARVHPDLGVIWVDAHTDINTPLTTTSGNLHGQPVSFLLKELKGKIPDVPGFSWVTPCISAKDIVYIGLRDVDPGEHYILKTLGIKYFSMTEVDRLGIGKVMEETLSYLLGRKKRPIHLSFDVDGLDPSFTPATGTPVVGGLTYREGLYITEEIYKTGLLSGLDIMEVNPSLGKTPEEVTRTVNTAVAITLACFGLAREGNHKPIDYLNPPK
modifications: PEG, about 6-12 per arginase; optional His6 tag
Turning to B1, the anti-tumour effect entry in experiment [1] was “does not produce a significant anti-tumour effect”; in the experiment on K-562 leukemia xenograft, “no significant anti-tumour effect”; in experiment [4], “slightly promotes SU-DHL-10 tumour growth”; in experiment [5], “do not produce a significant anti-tumour effect”; in experiment [6], “no significant anti-tumour effect”. Besides, the median survival came to 10 days in experiment [2] (DFMO 2% w/v in drinking water) and 15 days in experiment [3] (DFMO 2% w/v in drinking water). Moreover, the tumour growth entry in experiment [2] (setting [7]) and in experiment [3] (setting [7]) was “induces lung adenocarcinoma proliferation; also recorded: promotes tumour growth” throughout. The entries for the “in vivo ASS1 expression (Western blot)” value in experiment [2] (setting [8]) and in experiment [3] (setting [8]) were “remains unchanged” and “decreases”, respectively. Moreover, the “in vivo ODC expression (Western blot)” value in experiment [2] (setting [9]) and in experiment [3] (setting [9]) was “increases; also recorded: over-expressed; also recorded: upregulated” in each case.

What is called TGI is the reduction of tumour growth relative to the control group.

For the origin of these results see patent US20180271960A1, “METHOD TO TREAT CANCER USING ARGININE DELPETOR AND ORNITHINE DECARBOXYLASE (ODC) INHIBITOR” (Bio-Cancer Treatment International Ltd., priority 2015, published 2018).
